# From the Human Domainome abundance scans (Beltran et al. 2025)
# ± gives the uncertainty stated by the source.
# B1: Cyclin-F, residues 28 to 80; numbered along this chain, P41002 (parent)
# chain: RNLTILSLPEDVLFHILKWLSVEDILAVRAVHSQLKDLVDNHASVWACASFQE
# Variants of: B1
# Test: abundance fitness (aPCA) (normalised: wild type 0, dead -1); higher = more abundant; growth selection in yeast, the domain comes from the species named
# Conditions: Homo sapiens
row,Variant,abundance fitness
1,RNLTILSLPEDVLFHILKWLSVEDILATRAVHSQLKDLVDNHASVWACASFQE,-0.615 ± 0.15
2,RNLTILSLPEDVLFHILKWLSVEDILADRAVHSQLKDLVDNHASVWACASFQE,-0.885 ± 0.21
3,RNLTILSLPEDVLFHILKWLSVEDILAGRAVHSQLKDLVDNHASVWACASFQE,-0.759 ± 0.1
4,RNLTILSLPEDVLFHILKWLSVEDILAFRAVHSQLKDLVDNHASVWACASFQE,-0.396 ± 0.14
5,RNLTILSLPEDVLFHILKWLSVEDILALRAVHSQLKDLVDNHASVWACASFQE,0.168 ± 0.083
6,RNLTILSLPEDVLFHILKWLSVEDILAQRAVHSQLKDLVDNHASVWACASFQE,-0.716 ± 0.2
7,RNLTILSLPEDVLFHILKWLSVEDILASRAVHSQLKDLVDNHASVWACASFQE,-0.823 ± 0.12
8,RNLTILSLPEDVLFHILKWLSVEDILARRAVHSQLKDLVDNHASVWACASFQE,-0.833 ± 0.12
9,RNLTILSLPEDVLFHILKWLSVEDILANRAVHSQLKDLVDNHASVWACASFQE,-1.09 ± 0.37
10,RNLTILSLPEDVLFHILKWLSVMDILAVRAVHSQLKDLVDNHASVWACASFQE,-0.802 ± 0.24
11,RNLTILSLPEDVLFHILKWLSVWDILAVRAVHSQLKDLVDNHASVWACASFQE,-0.577 ± 0.23
12,RNLTILSLPEDVLFHILKWLSVYDILAVRAVHSQLKDLVDNHASVWACASFQE,-0.62 ± 0.2
13,RNLTILSLPEDVLFHILKWLSVNDILAVRAVHSQLKDLVDNHASVWACASFQE,-0.319 ± 0.21
14,RNLTILSLPEDVLFHILKWLSVLDILAVRAVHSQLKDLVDNHASVWACASFQE,-0.856 ± 0.15
15,RNLTILSLPEDVLFHILKWLSVRDILAVRAVHSQLKDLVDNHASVWACASFQE,-0.001 ± 0.12
16,RNLTILSLPEDVLFHILKWLSVSDILAVRAVHSQLKDLVDNHASVWACASFQE,-0.186 ± 0.11
17,RNLTILSLPEDVLFHILKWLSVTDILAVRAVHSQLKDLVDNHASVWACASFQE,-0.477 ± 0.18
18,RNLTILSLPEDVLFHILKWLSVPDILAVRAVHSQLKDLVDNHASVWACASFQE,-0.236 ± 0.18
19,RNLTILSLPEDVLFHILKWLSVVDILAVRAVHSQLKDLVDNHASVWACASFQE,-0.372 ± 0.13
20,RNLTILSLPEDVLFHILKWLSVEDIAAVRAVHSQLKDLVDNHASVWACASFQE,-0.283 ± 0.1
21,RNLTILSLPEDVLFHILKWLSVEDIVAVRAVHSQLKDLVDNHASVWACASFQE,-0.452 ± 0.1
22,RNLTILSLPEDVLFHILKWLSVEDIKAVRAVHSQLKDLVDNHASVWACASFQE,-0.043 ± 0.17
23,RNLTILSLPEDVLFHILKWLSVEDIYAVRAVHSQLKDLVDNHASVWACASFQE,-0.386 ± 0.16
24,RNLTILSLPEDVLFHILKWLSVEDIDAVRAVHSQLKDLVDNHASVWACASFQE,-0.961 ± 0.29
25,RNLTILSLPEDVLFHILKWLSVEDIQAVRAVHSQLKDLVDNHASVWACASFQE,-0.147 ± 0.11

row,Variant,abundance fitness
1,RNLTILSLPEDVLFHILKWLSVEDIFAVRAVHSQLKDLVDNHASVWACASFQE,-0.424 ± 0.13
2,RNLTILSLPEDVLFHILKWLSVEDIRAVRAVHSQLKDLVDNHASVWACASFQE,-0.169 ± 0.08
3,RNLTILSLPEDVLFHILKWLSVEDIGAVRAVHSQLKDLVDNHASVWACASFQE,-0.451 ± 0.094
4,RNLTILSLPEDVLFHILKWLSVEDIPAVRAVHSQLKDLVDNHASVWACASFQE,-0.694 ± 0.17
5,RNLTILSLPEDVLFHILKWLSVEDICAVRAVHSQLKDLVDNHASVWACASFQE,-0.256 ± 0.13
6,RNLTILSLPEDVLFHILKWLSVEDISAVRAVHSQLKDLVDNHASVWACASFQE,-0.5 ± 0.12
7,RNLTILSLPEDVLFHILKWLSVEDIMAVRAVHSQLKDLVDNHASVWACASFQE,-0.183 ± 0.14
8,RNLTILSLPEDVLFHILKWLSVEDIEAVRAVHSQLKDLVDNHASVWACASFQE,-0.5 ± 0.13
9,RNLTILSLPEDVLFHILKWLSVEDIIAVRAVHSQLKDLVDNHASVWACASFQE,-0.023 ± 0.29
10,RNLTILSLPEDVLFHILKWLSVEDITAVRAVHSQLKDLVDNHASVWACASFQE,-0.396 ± 0.14
11,RNLTILSLPEDVLFHILKWLSVEDILCVRAVHSQLKDLVDNHASVWACASFQE,-0.091 ± 0.11
12,RNLTILSLPEDVLFHILKWLSVEDILEVRAVHSQLKDLVDNHASVWACASFQE,-0.715 ± 0.19
13,RNLTILSLPEDVLFHILKWLSVEDILGVRAVHSQLKDLVDNHASVWACASFQE,-0.787 ± 0.098
14,RNLTILSLPEDVLFHILKWLSVEDILQVRAVHSQLKDLVDNHASVWACASFQE,-0.089 ± 0.18
15,RNLTILSLPEDVLFHILKWLSVEDILYVRAVHSQLKDLVDNHASVWACASFQE,-0.876 ± 0.25
16,RNLTILSLPEDVLFHILKWLSVEDILHVRAVHSQLKDLVDNHASVWACASFQE,-0.259 ± 0.38
17,RNLTILSLPEDVLFHILKWLSVEDILFVRAVHSQLKDLVDNHASVWACASFQE,-0.945 ± 0.24
18,RNLTILSLPEDVLFHILKWLSVEDILRVRAVHSQLKDLVDNHASVWACASFQE,-0.047 ± 0.085
19,RNLTILSLPEDVLFHILKWLSVEDILPVRAVHSQLKDLVDNHASVWACASFQE,-0.44 ± 0.17
20,RNLTILSLPEDVLFHILKWLSVEDILTVRAVHSQLKDLVDNHASVWACASFQE,0.087 ± 0.15
21,RNLTILSLPEDVLFHILKWLSVEDILKVRAVHSQLKDLVDNHASVWACASFQE,-0.175 ± 0.14
22,RNLTILSLPEDVLFHILKWLSVEDILVVRAVHSQLKDLVDNHASVWACASFQE,-0.238 ± 0.084
23,RNLTILSLPEDVLFHILKWLSVEDILIVRAVHSQLKDLVDNHASVWACASFQE,-0.285 ± 0.24
24,RNLTILSLPEDVLFHILKWLSVEDILWVRAVHSQLKDLVDNHASVWACASFQE,-0.622 ± 0.14
25,RNLTILSLPEDVLFHILKWLSVEDILMVRAVHSQLKDLVDNHASVWACASFQE,-0.273 ± 0.12
